Reference: paper PMC9757075 (Nucleic Acids Research, 2022)
Like-named read-outs stand apart in the source and are kept apart here. Each block holds one molecule with its values, some of them ahead of it.

Tests used:
[1] = biological target: PorX (wild type, non-phosphorylated) (Porphyromonas gingivalis W83) (UniProt B2RJJ3); assay: SAXS
[2] = biological target: PorX (wild type, non-phosphorylated) (Porphyromonas gingivalis W83) (UniProt B2RJJ3); assay: SAXS; remark: listed apart in the source
PorX [3] = assay: SEC-MALLS absolute molecular weight; settings: reference: PorX with MgCl2 alone; sites D58
PorX [4] = assay: small-angle X-ray scattering in solution; settings: reference: PorX without BeF3; sites D58
[5] = biological target: Selenomethionine variant of PorX, phosphorylated with acetyl phosphate (Porphyromonas gingivalis W83) (UniProt B2RJJ3); assay: SEC-MALS
crystal structure = biological target: the molecule itself; assay: crystal structure
SEC [6] = biological target: the molecule itself; assay: SEC
SEC [7] = biological target: the molecule itself; assay: SEC; remark: listed apart in the source

stoichiometry N [1]: 2 | stoichiometry N [2]: 2
Molecule: PorX (wild type, non-phosphorylated) (from UniProt B2RJJ3 1-518) (natural protein)

Molecule: PorX PorX pre-incubated with AcP and MgCl2
other: MALLS molecular weight (PorX [3]): gained; reference 70.2

Molecule: PorX PorX with BeF3 and MgCl2
other: radius of gyration (PorX [4]): gained; reference 29.6

stoichiometry N [5]: 2
Molecule: Selenomethionine variant of PorX, phosphorylated with acetyl phosphate (from UniProt B2RJJ3 1-518) (natural protein)

B1: PorX T272A, selenomethionine variant (T272A-pGpG crystal) (natural protein, Porphyromonas gingivalis W83)
chain: MEKNMRPYTVLWADDEIDLLKPHILFLEQKGYQVTPVLSGNDAIEALQNNDFDIVFLDENMPGIGGLDALQKIKELKPYTPVVMITKSEEEHIMTQAIGGKIADYLIKPVNPNQLLLSLKKNLQQHSIISETTNTNYRQEFVQLGAQMSGKLSFEEWKELYRRIVFWEIELEQADRQMGELLEMQKQEANRLFARFVTQNYREWIAKPDTRPTMSPDLFKQKVFPLLDNGEKVFFILIDNFRQDQWESVKSMLSEFYTFEEDMYLSILPTAAQYARNAIFSGLMPLQIEKMFPDLWVDEESEEGKNLNEEPMIRTLIERYRKHYSFSYNKVYETKFGERLLGQIRSLSQNQLNVIVLNFVDMMSHARTDSKMIRELASNEAAYRSLTKSWFKHSTTYNLFRSIAEMGYKVVLTTDHGTIQVKNPVKVIGDRSTNTNLRYKIGKNLDYNPKEVFEIKDPASVGLPHNNLSDKFIFTKEDDFFAYPNNYNYYVQYYRNTFQHGGISLEEMLVPVITMQPK
modifications: selenomethionine
binding result (crystal structure): binds

B2: PorX T272A (natural protein, Porphyromonas gingivalis W83)
chain: MEKNMRPYTVLWADDEIDLLKPHILFLEQKGYQVTPVLSGNDAIEALQNNDFDIVFLDENMPGIGGLDALQKIKELKPYTPVVMITKSEEEHIMTQAIGGKIADYLIKPVNPNQLLLSLKKNLQQHSIISETTNTNYRQEFVQLGAQMSGKLSFEEWKELYRRIVFWEIELEQADRQMGELLEMQKQEANRLFARFVTQNYREWIAKPDTRPTMSPDLFKQKVFPLLDNGEKVFFILIDNFRQDQWESVKSMLSEFYTFEEDMYLSILPTAAQYARNAIFSGLMPLQIEKMFPDLWVDEESEEGKNLNEEPMIRTLIERYRKHYSFSYNKVYETKFGERLLGQIRSLSQNQLNVIVLNFVDMMSHARTDSKMIRELASNEAAYRSLTKSWFKHSTTYNLFRSIAEMGYKVVLTTDHGTIQVKNPVKVIGDRSTNTNLRYKIGKNLDYNPKEVFEIKDPASVGLPHNNLSDKFIFTKEDDFFAYPNNYNYYVQYYRNTFQHGGISLEEMLVPVITMQPK
binding result (SEC [6]): binds

B3: PorX T272A incubated with acetyl phosphate (phosphorylated) (natural protein, Porphyromonas gingivalis W83)
chain: MEKNMRPYTVLWADDEIDLLKPHILFLEQKGYQVTPVLSGNDAIEALQNNDFDIVFLDENMPGIGGLDALQKIKELKPYTPVVMITKSEEEHIMTQAIGGKIADYLIKPVNPNQLLLSLKKNLQQHSIISETTNTNYRQEFVQLGAQMSGKLSFEEWKELYRRIVFWEIELEQADRQMGELLEMQKQEANRLFARFVTQNYREWIAKPDTRPTMSPDLFKQKVFPLLDNGEKVFFILIDNFRQDQWESVKSMLSEFYTFEEDMYLSILPTAAQYARNAIFSGLMPLQIEKMFPDLWVDEESEEGKNLNEEPMIRTLIERYRKHYSFSYNKVYETKFGERLLGQIRSLSQNQLNVIVLNFVDMMSHARTDSKMIRELASNEAAYRSLTKSWFKHSTTYNLFRSIAEMGYKVVLTTDHGTIQVKNPVKVIGDRSTNTNLRYKIGKNLDYNPKEVFEIKDPASVGLPHNNLSDKFIFTKEDDFFAYPNNYNYYVQYYRNTFQHGGISLEEMLVPVITMQPK
modifications: phosphorylated with acetyl phosphate (attenuated against the wild type)
binding result (SEC [7]): binds
